Results taken from patent publication US20230303666A1.

Biological target: SARS-CoV-2 S on pseudotyped lentivirus (pCMV-SARS2deltaC-gp41) (SARS-CoV-2) (UniProt P0DTC2)
Test: cell-based or functional assay

**Q.** With Nb21.t (VHH) as the substance, how does the IC50 of pseudovirus neutralization read?
**A.** 0.244 nM
